According to the nanobody polyreactivity screen of Harvey et al. (2022):

Experiment: yeast display, Sf9 membrane polyspecificity reagent, FACS + sequencing; frameworks hold sequencing errors
In short: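 Using colony PCR, genes from sorted yeast display clones were amplified, then sequenced on MiSeq at 2 × 250 and filtered by CDR length. The clones had been stained with 10% biotinylated, detergent-solubilized Sf9 membrane reagent for 1 hour at 4 °C and sorted by FACS into low and high (top ~1%) gates on anti-HA and streptavidin fluorescence. Polyreactivity labels come from the gate of origin.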

Row | Sequence | polyreactivity (PSR sort gate)
1 | QVQLVESGGGLVQAGGSLRLSCAASGFTFKRNAMGWYRQAPGKERELVAAISWSGSRTYADSVKGRFTISRDYAKNTVYVQMNSLKPEDTAVYYCAASPGRRRRPYASLIRYDYWGQGTQVTVSS | high polyreactivity
2 | QVQLVESGGGLVQAGGSLRLSCAASGFTFKRYAMGWYRQAPGKERELVAAISWSGGSTYYADSVKGRFTISRDNAKNTVYLQMNSLKPEDTAVYYCAADGGSTEEYYYWGQGTQVTVSS | high polyreactivity
3 | QVQLVESGGGLVQAGGSLRLSCAASGFTFKRYAMGWYRQAPGKERELVAAISYSGGSTYYADSVKGRFTISRDNAKNTVYLQMNSLKPEDTAVYYCAALPGRRLWTYDYWGQGTQVTVSS | high polyreactivity
4 | QVQLVESGGGLVQAGGSLRLSCAASGFTFKRYAMGWYRQAPGKERELVAAISYSGGSTYYADSVKGRYTISRDNAKNTVYLQMNSLKPEVTAVYYCNTGRRYYSYRRDYWGQGTQVTVSS | high polyreactivity
5 | QVQLVESGGGLVQAGGSLRLSCAASGFTFKRYAMGWYRQAPGNERELVAAISYSGGSTYYADSVKWRFTISRDNAKNTVYLQMKSLKPEDTAVYYCAAPRGHGKYYSWGQGTQVTVSS | high polyreactivity
6 | QVQLVESGGGLVQAGGSLRLSCAASGFTFKRYDMGWYRQAPGKERELVAAISWNGGSTYYADSVKGRFTISRDNAKNTVYLQMNSLKPEDTAVYYCAARFAYPPKRYYWGQGTQVTVSS | high polyreactivity
7 | QVQLVESGGGLVQAGGSLRLSCAASGFTFKSNAMGWYRPSPGKERELVAAITWNGGSTYADSEKGRFTISRDNAKNTVYLQMNSLKPEDTAVYYCAARPYPHSAYEGDYWGRGTQVTVSS | low polyreactivity
8 | QVQLVESGGGLVQAGGSLRLSCAASGFTFKWYTMGWYRPAPGKERELVAGISRRGGSTYYADSVKGRFTISRDNAKNTVYLQMNSLKPEDTAVYYCARRFLYPYDHWGQGTQVTVSS | high polyreactivity
9 | QVQLVESGGGLVQAGGSLRLSCAASGFTFKYNAMGWNRQAPGKERELVASISSGSTNYADSVKGRFTISRDNAKNTVYLQMNSLKPEDTAVYYCAASVSRGKRVRYGYLFKMDYWGQGTLVTVSS | low polyreactivity
10 | QVQLVESGGGLVQAGGSLRLSCAASGFTFKYYAMGWYRQAPGKERELVAAINRSGGSTHYADSVKGRFTISRDIAKNTVYLQINSLKPEDTAVYYCAATGRRRTYSEYEYWGQGTQVTVSS | high polyreactivity
11 | QVQLVESGGGLVQAGGSLRLSCAASGFTFKYYAMGWYRQAPGKERELVAGISLIDGSTYYADSVKGRFTISRDNAKNTVYLQMNSLKPEDTAVYSCAKDRAPDGHYGSYDYWGQGTQVTVSS | low polyreactivity
12 | QVQLVESGGGLVQAGGSLRLSCAASGFTFKYYAMGWYRQAPGKERELVASISWDGTRTYYADSVKGRFTISRDNAKNTVYLQMNSLKPEDTAVYDGAAVFLDYRTYSYGYWGQGTQVTVSS | high polyreactivity
13 | QVQLVESGGGLVQAGGSLRLSCAASGFTFKYYAMGWYRQAPGKERELVAVISTRGTNTYYADSVKGRFTISRDNAKNTVYLQMNSLKPEDTAVYYCAAVLGGNSRLDYWGQGTQVTVSS | high polyreactivity
14 | QVQLVESGGGLVQAGGSLRLSCAASGFTFLDNAMGWYRPAPGKERELVAAISGIGGSTSYADSVKGRFTISRDNAKNTVYLQMNSLKPEDTAVYYCATRWQTVGRDTIFAYDYWGQGTQVTVSS | low polyreactivity
15 | QVQLVESGGGLVQAGGSLRLSCAASGFTFLFNTMGWYRQAPGKERELVAGISRGGSTTYADSVKGRFTISRDNAKNTVYLQMNSLKPEDTAVYYCAARTRYNWRGYDYWGQGTQVTVSS | high polyreactivity
16 | QVQLVESGGGLVQAGGSLRLSCAASGFTFLGYAMGWYRQAPGKERELVAAITRGGSTYYADSVKGRFTISRDNAKNTVYLQMNSLKPEDTAVYYCAARARAGGYGYWGQGTQVTVSS | high polyreactivity
17 | QVQLVESGGGLVQAGGSLRLSCAASGFTFLGYDMGWYRQAPGKERELVAAIDYSGGSTYYADSVKGRFTISRDNAKNTVYLQMNSLKPEDTAVYYCAAEYQSGPYTWYEYWGQGTQVTVSS | high polyreactivity
18 | QVQLVESGGGLVQAGGSLRLSCAASGFTFLINAMGWYRQAPGKERELVAAIRSGGSTNYADSVKGRFTISRDNAKNSVYLQMNSLKPEDTAVYYCAARRYYPYKYRYGYWGQGTQVTVSS | high polyreactivity
19 | QVQLVESGGGLVQAGGSLRLSCAASGFTFLRYAMGWYRQAPGKERELVAAITGSGGSTYYADSVKGRFTISRDNAQNTVYLQMNSLKPEDTAVYYCSIVSKFTGDYGYWGQGTQVTVSS | high polyreactivity
20 | QVQLVESGGGLVQAGGSLRLSCAASGFTFLSYTMGWYRQAPGKERELVASITASGTRTYYADSVKGRFTISRDNAKNTVYLQMNRLKPEDTAVYYCAARRSGSGSHDYGYWGQGTQVTVSS | low polyreactivity
21 | QVQLVESGGGLVQAGGSLRLSCAASGFTFLSYTMGWYRQAPGKERELVASITASGTRTYYADSVKGRFTISRDNAKNTVYLQMNRLKPEDTSVYYCAARRSGSGSHDYGYWGQGTQVTVSS | low polyreactivity
22 | QVQLVESGGGLVQAGGSLRLSCAASGFTFLVNTMGWYRQAPGKERELVAATITSTGASTYYADSVKGRFTISRDNAKNTVYLQMNSLKPEDTAVYYCAVDPGGGNYIYYYNEYDYWGQGTQVTVSS | low polyreactivity

Row | Sequence | polyreactivity (PSR sort gate)
23 | QVQLVESGGGLVQAGGSLRLSCAASGFTFLYNAMGWYRQAPGKERELVASINSGGSTNYADSVKGRFTISRDNAKNTVYLQMNSLKPEDTAVYYCAADKGPLQRGFDYWGQGTQVTVSS | low polyreactivity
24 | QVQLVESGGGLVQAGGSLRLSCAASGFTFLYNTMGWYRQAPGKERELVAAISIRGGSTYYADSVKGRFTISRDNAKNTVYLQMNSLKPEETAVYYCAARTPPPSSRSRVYYWGLGTQVTVSS | high polyreactivity
25 | QVQLVESGGGLVQAGGSLRLSCAASGFTFLYYAMGWYRQAPGKERELVAAISASSDRTYYADSVKGRFTISRDNAMNTVYLQMNSLKPDDTAVYYCAAYNSRVGGYRGYGYWGQGTLVTVSS | high polyreactivity
26 | QVQLVESGGGLVQAGGSLRLSCAASGFTFNCYAMGWYRQAPGKERELVARIRWRGSTYYADSVKGRFTISRDNAKNTVYLQMNSLKPEDTAVYYCAARYYTKLYWGQGTQVTVSS | high polyreactivity
27 | QVQLVESGGGLVQAGGSLRLSCAASGFTFNDYAMGWYRQAPGKARELVAAIEWYGGRTYYADSVKGRFTISRDHAKNTDYFHMTSLKPVATAVYYCAAVLYSRLDWYRLDYWGQGTQVTVSS | low polyreactivity
28 | QVQLVESGGGLVQAGGSLRLSCAASGFTFNDYAMGWYRQAPGKEWELVAAIDWSGGRTYYADSVKGRFTISRDNAKNTVYLQMNSLKAEDTAVYYFAAVLYSRLYWYRLDYWGQGTQVTVSS | low polyreactivity
29 | QVQLVESGGGLVQAGGSLRLSCAASGFTFNKYAMGWYRQAPRKERELVAAISSSGGSTRYADSVKGRFTISRDNAKNTVYLQMISLKPEDTAVYYCAVYVTRDSGWWLYDYWGQGTQVTVSS | high polyreactivity
30 | QVQLVESGGGLVQAGGSLRLSCAASGFTFNRYAMGWYRQAPGKERELVAAISWSGTSTYYADSVKGRFTISRDNAKNTVYLQMNSLKPEDTAVYYCAARVKGQWNTYDYWGQGTQVTVSS | high polyreactivity
31 | QVQLVESGGGLVQAGGSLRLSCAASGFTFNSYAMGWYRQAPGKERELVAAISSSGGRTYYADSVKGRFTISRDNAKNTVYLQMNSLKPEETAVYYCNAVLVSYYSVGYDYWGQGTQVTVSS | high polyreactivity
32 | QVQLVESGGGLVQAGGSLRLSCAASGFTFNYAMGWYRQAPGKERELVAAISSAGTTYYADSVKGRFTISRDNAKNTVYLQMNSLKPEDTAVYYCAALARPKQDRYRYYYWGQGTQVTVSS | high polyreactivity
33 | QVQLVESGGGLVQAGGSLRLSCAASGFTFNYYAMGWYRQAPGKERELVAAITWRSGRTSYADSVKGRFTISRDNAKNTVYLQMNSLKPEDTAVYYCAKYTIYYGLTRYGYWGQGTQVTVSS | high polyreactivity
34 | QVQLVESGGGLVQAGGSLRLSCAASGFTFPDYAMGWYRQAPGKERELVAAITSSGGSTYYADSVKGRFTISRDNAKNTVYLQMNSLKPEDTAVYYCNAYISDDRYWSPAIEEDYWGQGTQVTVSS | high polyreactivity
35 | QVQLVESGGGLVQAGGSLRLSCAASGFTFPDYAMGWYRQAPGKERELVAGISSTGDSTYYADSGKGRYTISRDNAKNTGYLQRNSLKPEETAVYYCNAAQERPSIILFSKYDYWGQGTQETVSS | low polyreactivity
36 | QVQLVESGGGLVQAGGSLRLSCAASGFTFPEYTMGWYRQAPGKERELVAAISWSGGSTYYADSVKGRFTISRDNAKNSVYLQMNSLKPEDTAVYYCNWKRGYGYWGQGTQVTVSS | high polyreactivity
37 | QVQLVESGGGLVQAGGSLRLSCAASGFTFPFYTMGWYRQAPGKERELVAAITRSGASTFYADSVKGRFTISRDNAKNTVYLQMNSLKPEDTAVYYCAARRGYAPYEYWGQGTQVTVSS | high polyreactivity
38 | QVQLVESGGGLVQAGGSLRLSCAASGFTFPGYAMGWYRQAPGKERKLVAAITGSGGRTYYADSVKGRFTISRDNAKNTVYLQMNSLKPEDTAVYYCLARSYYNWYDYWGQGTQVTVSS | high polyreactivity
39 | QVQLVESGGGLVQAGGSLRLSCAASGFTFPGYTMGWSRQAPGKERELVAAISTSGGSTYYADSVKGRFTISRDNAKNTVYLQMNSLKPEDTAVYYCAAAKPRVISQNIIYDYWGQGTQVTVSS | high polyreactivity
40 | QVQLVESGGGLVQAGGSLRLSCAASGFTFPGYVMGWYRQAPGKERELVAAISRSGGRTYYADSVKGRFTISRDNAKNTVYLQMNSQKPDDTAVYYCNTPDPGRDSDYWGQGTQVTVSS | high polyreactivity
41 | QVQLVESGGGLVQAGGSLRLSCAASGFTFPPYAMGLYIQATGKETELVAAITVGGGRTYYADSVKARFTISRDNARNTVYLQMNWLKPVDTAVYYCDADSHASTYDYWGQGTQVTVSS | low polyreactivity
42 | QVQLVESGGGLVQAGGSLRLSCAASGFTFPPYGMGWYRQAPGKERELVASISIGGGTYYADSVKGRFTISRDNAQNTVYLQMNSLKPEDTPVYYCAADLGQWSYYEFDYWGQGTQVTVSS | low polyreactivity
43 | QVQLVESGGGLVQAGGSLRLSCAASGFTFPQYAMGWYIQAPGKERELVASITRRGGSTFYADSVKGRFTISRDNAKNTVYLQMNSLKPEDTAVYYSAAGDYSRSVSRYWYTDYDYWGQGTQVTVSS | high polyreactivity
